Test results as given in the supplement of paper PMC10567573.

B1: GNB5 (parent)
chain: YYPSGDAFASGSDDATCRLYDLRA

Variants of: B1
Assay: protein stability index of a GFP-peptide fusion (GPS, HEK-293T) (PSI 1-6); higher = more stable
Conditions: c terminus: a fixed tail appended
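Note: lentivirally expressed fusions sorted by FACS into six bins by GFP to DsRed ratio, PSI derived from sequencing read proportions per bin multiplied by bin number.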

Protein stability index, by site and new letter:
P3: E 4.01, T 3.52, Q 3.21, V 2.31, D 3.46, R 2.88, L 2.31, K 2.64, S 3.27, A 2.55, H 3.04, F 2.5, W 2.32, N 3.36, G 3.33, I 2, C 2.75, Y 2, M 2.99
A9: K 2.22, Y 2.04, R 2.17, W 1.72, C 2.36, T 2.36, Q 2.36, V 2.32, D 3.6, L 1.99, E 3.17, P 3.06, G 2.41, I 2.12, H 2.15, M 2.45, F 1.9, S 2.56, N 2.65
S10: W 2.23, D 3.28, P 2.46, N 2.64, Y 2.4, L 2.05, I 1.79, C 2.01, A 2.25, K 2.25, R 2.1, T 2.68, F 2.03, Q 2.54, H 2.56, G 2.36, V 2.18, M 2.16, E 3
Y1: N 3.71, G 3.7, W 2.86, S 3.99, D 4.09, R 3.58, T 3.6, K 3.55, C 3.3, H 3.95, M 3.67, P 3.72, E 3.81, I 3.52, F 2.65, V 3.72, A 3.83, L 3.84, Q 3.81
A7: V 2.23, D 3.83, I 2.31, P 2.5, F 1.77, E 3.1, L 2.2, T 2.71, W 1.66, S 2.39, M 2.47, Q 2.65, C 2.31, R 3.1, N 2.73, H 2.58, Y 2.06, K 2.52, G 3.47
F8: D 4.4, M 3.53, V 4.07, I 3.42, N 4.23, Q 3.71, L 3.6, Y 2.61, E 4.5, P 4.12, A 4.18, T 4.02, K 4.19, S 4.11, C 3.87, G 4.09, W 2.62, R 3.76, H 4.09
A15: M 2.36, V 2.72, S 2.25, L 2.15, H 2.05, T 2.26, G 2.87, F 2.1, Q 2.62, Y 2.21, N 2.61, I 1.97, C 1.98, D 3.4, W 2.56, P 2.63, E 2.75, R 2.24, K 2.35
S4: I 2.8, M 3.45, Y 2.82, C 2.16, D 3.56, F 2.29, V 2.56, K 3.33, E 3.72, Q 3.48, H 2.87, L 2.52, W 2.49, P 3.78, T 2.86, R 2.46, G 3.14, A 3.06, N 3.03
G11: D 2.74, E 2.81, W 2.11, V 1.94, S 2.08, T 2.28, I 1.89, M 1.66, N 2.64, P 2.31, K 1.94, H 2.44, R 1.83, Y 1.98, Q 2.14, C 2.09, F 1.99, A 2.23, L 2.89
Y2: K 4.08, Q 2.4, C 2.09, E 4.83, A 1.79, P 3.16, W 1.75, N 3.55, I 2.25, D 4.29, F 2.03, V 2.02, H 2.69, S 2.18, T 1.96, R 3.66, G 2.26, M 2.48, L 3.34
T16: Q 2.88, C 2.27, S 2.42, W 1.91, E 2.79, R 2.94, A 2.96, F 2.32, G 2.46, V 1.95, Y 2.52, N 2.69, D 2.91, I 2.18, H 2.37, M 2.31, P 2.54, K 3.11, L 2.32
C17: L 2.87, G 2.85, A 2.42, I 2.89, D 3.3, F 2.07, Y 2.23, M 2.46, Q 2.9, T 2.61, V 2.85, P 2.62, R 2.62, E 3.36, W 2.48, H 2.56, K 2.69, N 2.8, S 2.85
G5: A 2.95, T 3.56, K 2.89, Q 2.7, L 2.76, I 2.8, R 3.12, M 2.88, N 3.88, V 3.17, C 3.39, Y 2.4, S 3.09, D 3.77, F 2.61, H 2.81, P 2.69, W 2.37, E 3.96
D14: I 2.65, T 2.02, G 2.52, M 2.21, K 1.93, R 1.9, P 2.12, F 2.12, S 1.94, E 2.55, Y 1.58, H 2.2, W 1.22, L 1.92, C 2.39, V 2.27, A 1.91, N 1.98, Q 2.27
R18: H 3.23, D 3.35, G 2.85, A 3.06, L 2.45, M 2.2, K 3.04, C 2.29, F 2.84, I 2.42, E 3.25
D13: H 2.23, S 2.28, K 2.25, W 1.65, N 2.38, R 1.88, P 2.19, M 1.66, A 1.86, L 1.93, Q 2.2, C 1.56, Y 2.11, T 1.76, E 2.27, I 2.27, G 1.89, V 1.78, F 1.63
S12: C 2.98, G 1.74, A 2.76, E 2.89, L 2.16, I 2.24, Q 2.08, Y 2.98, N 2.41, P 2.17, K 2.21, F 2.41, T 2.79, M 2.13, V 2.04, H 2.92, D 3.23, W 2.74, R 2.17
D6: W 1.52, M 1.92, R 1.91, S 2.52, K 1.64, H 2.26, G 2.72, P 2.81, A 2.31, F 2.14, I 1.89, T 2.13, E 2.43, Y 1.97, V 2.35, N 2.11, Q 1.83, C 2.03, L 2.06
